One substance from PMC9653380 can be followed below.

The target of experiment [1] is variant S-trimer (prefusion-stabilized SARS-CoV-2 spike trimer, S-6P backbone, with K417N, E484K, N501Y and D614G) (SARS-CoV-2 | bacteriophage T4). The experiment in a line: SEC.
Experiment [2] deals with Fc-tagged human ACE2 (human) (UniProt Q9BYF1). As to the kind of experiment: BLI.

“variant S-trimer (prefusion-stabilized SARS-CoV-2 spike trimer, S-6P backbone, with K417N, E484K, N501Y and D614G)” had a stoichiometry N in experiment [1] of 3. For the same substance, the Kd in experiment [2] amounted to 9.14 nM.
